This is an account of results in PMC3153647 (The Journal of Cell Biology, 2011).

The target in the assay is T1, His-tagged Stx6 (aa 1–234) (human, UniProt O43752 1-234).
T1 sequence: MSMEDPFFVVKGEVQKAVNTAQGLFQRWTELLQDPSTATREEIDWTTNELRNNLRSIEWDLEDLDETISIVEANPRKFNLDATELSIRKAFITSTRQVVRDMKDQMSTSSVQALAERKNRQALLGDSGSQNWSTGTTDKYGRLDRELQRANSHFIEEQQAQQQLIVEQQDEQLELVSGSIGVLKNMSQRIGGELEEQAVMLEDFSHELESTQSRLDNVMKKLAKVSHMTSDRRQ
Kind of assay: pull-down.

B1: GST-Cog6 (aa 1–200), bacterial (domain or fragment)
chain: MAEGSGEVVAVSATGAANGLNNGAGGTSATTCNPLSRKLHKILETRLDNDKEMLEALKALSTFFVENSLRTRRNLRGDIERKSLAINEEFVSIFKEVKEELESISEDVQAMSNCCQDMTSRLQAAKEQTQDLIVKTTKLQSESQKLEIRAQVADAFLSKFQLTSDEMSLLRGTREGPITEDFFKALGRVKQIHNDVKVLL
Turning to B1, the binding result is “binds”.
